The subject of data set [1] is hTERT-HMEC. Description: percentage of EdU-negative (G0-arrested) nuclei per well, 72 h; higher = more G0 arrest. To be noted: reference: sequence is the full UniProt precursor, the tested protein was the secreted form or ectodomain.
Data set [2] deals with MCF7. Described as above. To be noted: reference: sequence is the full UniProt precursor, the tested protein was the secreted form or ectodomain.
The mark [3] stands for this setting: protein concentration 0.00775 µM.
[4] abbreviates: protein concentration 0.0775 µM.
Where [5] appears, read: protein concentration 0.0357143 µM.
Setting [6] is: protein concentration 0.357143 µM.
[7] abbreviates: protein concentration 0.0270475 µM.
[8] abbreviates: protein concentration 0.270475 µM.
The mark [9] stands for this setting: protein concentration 0.0225 µM.

± gives the standard deviation of the averaged measurements.
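Also: secreted proteins added to cultured cells, EdU pulse at the end, nuclei found by Hoechst imaging, EdU status from nuclear versus surrounding ring intensity ratio, PBS as neutral control.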

“MAQSRVLLLLLLLPPQLHLGPVLAVRAPGFGRSGGHSLSPEENEFAEEEPVLVLSPEEPGPGPAAVSCPRDCACSQEGVVDCGGIDLREFPGDLPEHTNHLSLQNNQLEKIYPEELSRLHRLETLNLQNNRLTSRGLPEKAFEHLTNLNYLYLANNKLTLAPRFLPNALISVDFAANYLTKIYGLTFGQKPNLRSVYLHNNKLADAGLPDNMFNGSSNVEVLILSSNFLRHVPKHLPPALYKLHLKNNKLEKIPPGAFSELSSLRELYLQNNYLTDEGLDNETFWKLSSLEYLDLSSNNLSRVPAGLPRSLVLLHLEKNAIRSVDANVLTPIRSLEYLLLHSNQLREQGIHPLAFQGLKRLHTVHLYNNALERVPSGLPRRVRTLMILHNQITGIGREDFATTYFLEELNLSYNRITSPQVHRDAFRKLRLLRSLDLSGNRLHTLPPGLPRNVHVLKVKRNELAALARGALVGMAQLRELYLTSNRLRSRALGPRAWVDLAHLQLLDIAGNQLTEIPEGLPESLEYLYLQNNKISAVPANAFDSTPNLKGIFLRFNKLAVGSVVDSAFRRLKHLQVLDIEGNLEFGDISKDRGRLGKEKEEEEEEEEEEEETR [Q7Z5L7]”: the “percentage of EdU-negative” value was 4.64 ± 0.6% in data set [1] (setting [3]), 5.72 ± 1.3% in data set [1] (setting [4]), 24.5 ± 1.1% in data set [2] (setting [3]) and 23.2 ± 0.88% in data set [2] (setting [4]).
In the case of “MAQTNSFFMLISSLMFLSLSQGQESQTELPNPRISCPEGTNAYRSYCYYFNEDPETWVDADLYCQNMNSGNLVSVLTQAEGAFVASLIKESSTDDSNVWIGLHDPKKNRRWHWSSGSLVSYKSWDTGSPSSANAGYCASLTSCSGFKKWKDESCEKKFSFVCKFKN”, the “percentage of EdU-negative” value amounted to 5.51 ± 1.2% in data set [1] (setting [5]), 5.35 ± 1.6% in data set [1] (setting [6]), 27 ± 1.8% in data set [2] (setting [5]) and 24.6 ± 0.83% in data set [2] (setting [6]).
Consider “MAQTSSYFMLISCLMFLSQSQGQEAQTELPQARISCPEGTNAYRSYCYYFNEDRETWVDADLYCQNMNSGNLVSVLTQAEGAFVASLIKESGTDDFNVWIGLHDPKKNRRWHWSSGSLVSYKSWGIGAPSSVNPGYCVSLTSSTGFQKWKDVPCEDKFSFVCKFKN”, for which the “percentage of EdU-negative” value was found to be 6.23 ± 0.99% in data set [1] (setting [7]), 6.73 ± 0.84% in data set [1] (setting [8]), 25 ± 1.8% in data set [2] (setting [7]) and 23.9 ± 0.49% in data set [2] (setting [8]).
On to “MAQYLSTLLLLLATLAVALAWSPKEEDRIIPGGIYNADLNDEWVQRALHFAISEYNKATKDDYYRRPLRVLRARQQTVGGVNYFFDVEVGRTICTKSQPNLDTCAFHEQPELQKKQLCSFEIYEVPWENRRSLVKSRCQES”, for which the “percentage of EdU-negative” value worked out at 5.26 ± 0.4% in data set [1] (setting [9]), 5.09 ± 0.29% in data set [1] (protein concentration 0.225 µM), 25.5 ± 1.2% in data set [2] (setting [9]) and 25 ± 0.45% in data set [2] (protein concentration 0.225 µM).
The corresponding values for “MARAAALLPSRSPPTPLLWPLLLLLLLETGAQDVRVQVLPEVRGQLGGTVELPCHLLPPVPGLYISLVTWQRPDAPANHQNVAAFHPKMGPSFPSPKPGSERLSFVSAKQSTGQDTEAELQDATLALHGLTVEDEGNYTCEFATFPKGSVRGMTWLRVIAKPKNQAEAQKVTFSQDPTTVALCISKEGRPPARISWLSSLDWEAKETQVSGTLAGTVTVTSRFTLVPSGRADGVTVTCKVEHESFEEPALIPVTLSVRYPPEVSISGYDDNWYLGRTDATLSCDVRSNPEPTGYDWSTTSGTFPTSAVAQGSQLVIHAVDSLFNTTFVCTVTNAVGMGRAEQVIFVRETPNTAGAGATGGIIGGIIAAIIATAVAATGILICRQQRKEQTLQGAEEDEDLEGPPSYKPPTPKAKLEAQEMPSQLFTLGASEHSPLKTPYFDAGASCTEQEMPRYHELPTLEERSGPLHPGATSLGSPIPVPPGPPAVEDVSLDLEDEEGEEEEEYLDKINPIYDALSYSSPSDSYQGKGFVMSRAMYV” are 4.75 ± 0.29%, 5.33 ± 0.83%, 21.9 ± 1.3% and 22.8 ± 0.43%.
On to “MARAGPAWLLLAIWVVLPSWLSSAKVSSLIERISDPKDLKKLLRTRNNVLVLYSKSEVAAENHLRLLSTVAQAVKGQGTICWVDCGDAESRKLCKKMKVDLSPKDKKVELFHYQDGAFHTEYNRAVTFKSIVAFLKDPKGPPLWEEDPGAKDVVHLDSEKDFRRLLKKEEKPLLIMFYAPWCSMCKRMMPHFQKAATQLRGHAVLAGMNVYSSEFENIKEEYSVRGFPTICYFEKGRFLFQYDNYGSTAEDIVEWLKNPQPPQPQVPETPWADEGGSVYHLTDEDFDQFVKEHSSVLVMFHAPWCGHCKKMKPEFEKAAEALHGEADSSGVLAAVDATVNKALAERFHISEFPTLKYFKNGEKYAVPVLRTKKKFLEWMQNPEAPPPPEPTWEEQQTSVLHLVGDNFRETLKKKKHTLVMFYAPWCPHCKKVIPHFTATADAFKDDRKIACAAVDCVKDKNQDLCQQEAVKGYPTFHYYHYGKFAEKYDSDRTELGFTNYIRALREGDHERLGKKKEEL”, for which the “percentage of EdU-negative” value was determined as 4.5 ± 0.56% in data set [1] (protein concentration 0.019 µM), 6.73 ± 0.2% in data set [1] (protein concentration 0.19 µM), 22.8 ± 0.61% in data set [2] (protein concentration 0.019 µM) and 22.5 ± 0.95% in data set [2] (protein concentration 0.19 µM).

The values above are taken from the supplement of paper PMC11316812.
